# Data taken from patent publication US7588931B2, “High arachidonic acid producing strains of Yarrowia lipolytica” (E. I. du Pont de Nemours and Company, priority 2004, dated 2009).
# B1: EXP1: Y. lipolytica export protein promoter, SEQ ID NO:364 (nucleic acid, listed as Yarrowia lipolytica)
# DNA: GGAGTTTGGCGCCCGTTTTTTCGAGCCCCACACGTTTCGGTGAGTATGAGCGGCGGCAGATTCGAGCGTTTCCGGTTTCCGCGGCTGGACGAGAGCCCATGATGGGGGCTCCCACCACCAGCAATCAGGGCCCTGATTACACACCCACCTGTAATGTCATGCTGTTCATCGTGGTTAATGCTGCTGTGTGCTGTGTGTGTGTGTTGTTTGGCGCTCATTGTTGCGTTATGCAGCGTACACCACAATATTGGAAGCTTATTAGCCTTTCTATTTTTTCGTTTGCAAGGCTTAACAACATTGCTGTGGAGAGGGATGGGGATATGGAGGCCGCTGGAGGGAGTCGGAGAGGCGTTTTGGAGCGGCTTGGCCTGGCGCCCAGCTCGCGAAACGCACCTAGGACCCTTTGGCACGCCGAAATGTGCCACTTTTCAGTCTAGTAACGCCTTACCTACGTCATTCCATGCATGCATGTTTGCGCCTTTTTTCCCTTGCCCTTGATCGCCACACAGTACAGTGCACTGTACAGTGGAGGTTTTGGGGGGGTCTTAGATGGGAGCTAAAAGCGGCCTAGCGGTACACTAGTGGGATTGTATGGAGTGGCATGGAGCCTAGGTGGAGCCTGACAGGACGCACGACCGGCTAGCCCGTGACAGACGATGGGTGGCTCCTGTTGTCCACCGCGTACAAATGTTTGGGCCAAAGTCTTGTCAGCCTTGCTTGCGAACCTAATTCCCAATTTTGTCACTTCGCACCCCCATTGATCGAGCCCTAACCCCTGCCCATCAGGCAATCCAATTAAGCTCGCATTGTCTGCCTTGTTTAGTTTGGCTCCTGCCCGTTTCGGCGTCCACTTGCACAAACACAAACAAGCATTATATATAAGGCTCGTCTCTCCCTCCCAACCACACTCACTTTTTTGCCCGTCTTCCCTTGCTAACACAAAAGTCAAGAACACAAACAACCACCCCAACCCCCTTACACACAAGACATATCTACAGCA
# modifications: misc_feature: Promoter EXP1
# B2: Homo sapiens Δ5 desaturase: GenBank NP_037534; codon-optimized gene SEQ ID NO:13 (protein, listed as Homo sapiens)
# chain: MAPDPVAAETAAQGPTPRYFTWDEVAQRSGCEERWLVIDRKVYNISEFTRRHPGGSRVISHYAGQDATDPFVAFHINKGLVKKYMNSLLIGELSPEQPSFEPTKNKELTDEFRELRATVERMGLMKANHVFFLLYLLHILLLDGAAWLTLWVFGTSFLPFLLCAVLLSAVQAQAGWLQHDFGHLSVFSTSKWNHLLHHFVIGHLKGAPASWWNHMHFQHHAKPNCFRKDPDINMHPFFFALGKILSVELGKQKKKYMPYNHQHKYFFLIGPPALLPLYFQWYIFYFVIQRKKWVDLAWMITFYVRFFLTYVPLLGLKAFLGLFFIVRFLESNWFVWVTQMNHIPMHIDHDRNMDWVSTQLQATCNVHKSAFNDWFSGHLNFQIEHHLFPTMPRHNYHKVAPLVQSLCAKHGIEYQSKPLLSAFADIIHSLKESGQLWLDAYLHQ
# modifications: misc_feature: synthetic delta-5 desaturase (codon-optimized)
# B3: Rattus norvegicus C16/18 elongase: GenBank AB071986; codon-optimized gene SEQ ID NO:52 (protein, listed as Rattus norvegicus)
# chain: MDMSVLTLQEYEFEKQFNENEAIQWMQENWKKSFLFSALYAAFIFGGRHLMNKRAKFELRKPLVLWSLTLAVFSIFGALRTGAYMLYILMTKGLKQSVCDQSFYNGPVSKFWAYAFVLSKAPELGDTIFIILRKQKLIFLHWYHHITVLLYSWYSYKDMVAGGGWFMTMNYGVHAVMYSYYALRAAGFRVSRKFAMFITLSQITQMLMGCVINYLVFNWMQHDNDQCYSHFQNIFWSSLMYLSYLLLFCHFFFEAYIGKVKKATKAE
# modifications: misc_feature: synthetic C16/18 elongase (codon-optimized)
# B4: FBAINm: modified version of the FBAIN promoter, SEQ ID NO:163 (nucleic acid, listed as Yarrowia lipolytica)
# DNA: AAATTGCCCCGGAGAAGACGGCCAGGCCGCCTAGATGACAAATTCAACAACTCACAGCTGACTTTCTGCCATTGCCACTAGGGGGGGGCCTTTTTATATGGCCAAGCCAAGCTCTCCACGTCGGTTGGGCTGCACCCAACAATAAATGGGTAGGGTTGCACCAACAAAGGGATGGGATGGGGGGTAGAAGATACGAGGATAACGGGGCTCAATGGCACAAATAAGAACGAATACTGCCATTAAGACTCGTGATCCAGCGACTGACACCATTGCATCATCTAAGGGCCTCAAAACTACCTCGGAACTGCTGCGCTGATCTGGACACCACAGAGGTTCCGAGCACTTTAGGTTGCACCAAATGTCCCACCAGGTGCAGGCAGAAAACGCTGGAACAGCGTGTACAGTTTGTCTTAACAAAAAGTGAGGGCGCTGAGGTCGAGCAGGGTGGTGTGACTTGTTATAGCCTTTAGAGCTGCGAAAGCGCGTATGGATTTGGCTCATCAGGCCAGATTGAGGGTCTGTGGACACATGTCATGTTAGTGTACTTCAATCGCCCCCTGGATATAGCCCCGACAATAGGCCGTGGCCTCATTTTTTTGCCTTCCGCACATTTCCATTGCTCGGTACCCACACCTTGCTTCTCCTGCACTTGCCAACCTTAATACTGGTTTACATTGACCAACATCTTACAAGCGGGGGGCTTGTCTAGGGTATATATAAACAGTGGCTCTCCCAATCGGTTGCCAGTCTCTTTTTTCCTTTCTTTCCCCACAGATTCGAAATCTAAACTACACATCACAGAATTCCGAGCCGTGAGTATCCACGACAAGATCAGTGTCGAGACGACGCGTTTTGTGTAATGACACAATCCGAAAGTCGCTAGCAACACACACTCTCTACACAAACTAACCCAGCTCTGGTACC
# modifications: misc_feature: Promoter FBAINm
# Assays:
# [1] = system: β-glucuronidase (GUS) reporter; assay: Relative promoter activity rank from comparative GUS reporter studies (histochemical, fluorometric and/or Real Time PCR); type: cell-based, Yarrowia lipolytica; conditions: relative to other promoters
# Experimental: The activity of GPM is about the same as TEF, while the activity of GPD, FBA, FBAIN, FBAINm, GPDIN, GPAT, YAT1 and EXP1 are all greater than TEF (activity is quantified in a relative manner in the column titled “Activity Rank”, wherein a ‘1’ corresponds to the promoter with lowest activity, while a ‘7’ corresponds to the promoter with highest activity). […] GUS activity in each expressed construct was measured by histochemical and/or fluorometric assays (Jefferson, R. A. Plant Mol. Biol. Reporter 5:387-405 (1987)) and/or by use of Real Time PCR.
# [2] = system: Yarrowia lipolytica; assay: Percent substrate conversion of desaturases and elongases expressed in Yarrowia lipolytica; type: cell-based; conditions: percent substrate conversion, codon-optimized gene expressed in Y. lipolytica
# Experimental: The terms “conversion efficiency” and “percent substrate conversion” refer to the efficiency by which a particular enzyme (e.g., a desaturase or elongase) can convert substrate to product. The conversion efficiency is measured according to the following formula: ([product]/[substrate+product])*100, where ‘product’ includes the immediate product and all products in the pathway derived from it.
# With respect to Δ12 desaturase, Applicants have made the surprising discovery that the Fusarium moniliforme Δ12 desaturase (encoded by SEQ ID NO:27) functions with greater efficiency than the native Yarrowia lipolytica Δ12 desaturase in producing 18:2 in Y. lipolytica (see WO 2005/047485). Specifically, expression of the F. moniliforme Δ12 desaturase under the control of the TEF promoter in Y. lipolytica was determined to produce higher levels of 18:2 (68% product accumulation of LA) than were previously attainable by expression of a chimeric gene encoding the Y. lipolytica Δ12 desaturase under the control of the TEF promoter (59% product accumulation of LA). This corresponds to a difference in percent substrate conversion (calculated as ([18:2+18:3]/[18:1+18:2+18:3])*100) of 85% versus 74%, respectively.
# In the present invention, several desaturase and elongase genes from Table 5 were codon-optimized for expression in Yarrowia lipolytica, based on the host preferences described above. This was possible by first determining the Y. lipolytica codon usage profile (see WO 04/101757) and identifying those codons that were preferred. Then, for further optimization of gene expression in Y. lipolytica, the consensus sequence around the ‘ATG’ initiation codon was determined (i.e., ‘MAMMATGNHS’ (SEQ ID NO:356), wherein the nucleic acid degeneracy code used is as follows: M=A/C; S═C/G; H=A/C/T; and N=A/C/G/T). Table 7, below, compares the activity of native and codon-optimized genes when expressed in Y. lipolytica and provides details about each codon-optimized gene. % Sub. Conv. is the abbeviation for “percent substrate conversion” and Codon-Opt. is an abbreviation for “codon-optimized”.
# Construct pDMW237 (FIG. 8C), an auto-replication plasmid comprising a chimeric FBAIN::1 g D9e::Pex20 gene, was transformed into Y. lipolytica Y2031 strain (Example 4) as described in the General Methods. Three transformants of Y2031 with pDMW237 were grown individually in MM media for two days and the cells were collected by centrifugation, lipids were extracted, and fatty acid methyl esters were prepared by trans-esterification, and subsequently analyzed with a Hewlett-Packard 6890 GC.
# Construct pDMW297 was then used for transformation of strain Y2031 (Example 5) according to the General Methods. The transformant cells were plated onto MM selection media plates and maintained at 30° C. for 2 to 3 days. A total of 8 transformants grown on the MM plates were picked and re-streaked onto fresh MM plates. Once grown, these strains were individually inoculated into liquid MM at 30° C. and shaken at 250 rpm/min for 2 days. The cells were collected by centrifugation, lipids were extracted, and fatty acid methyl esters were prepared by trans-esterification, and subsequently analyzed with a Hewlett-Packard 6890 GC.
Molecule,Activity “Rank” [1],Codon-Opt. Gene % Sub. Conv. [2] [%]
B1,6,–
B2,–,30
B3,–,43
B4,5,–
